To fix the notation:
B1: holo-transcobalamin (recombinant human TC saturated with cobalamin) (ligand, UniProt P20062 19-427, looked up)
chain: EMCEIPEMDSHLVEKLGQHLLPWMDRLSLEHLNPSIYVGLRLSSLQAGTKEDLYLHSLKLGYQQCLLGSAFSEDDGDCQGKPSMGQLALYLLALRANCEFVRGHKGDRLVSQLKWFLEDEKRAIGHDHKGHPHTSYYQYGLGILALCLHQKRVHDSVVDKLLYAVEPFHQGHHSVDTAAMAGLAFTCLKRSNFNPGRRQRITMAIRTVREEILKAQTPEGHFGNVYSTPLALQFLMTSPMRGAELGTACLKARVALLASLQDGAFQNALMISQLLPVLNHKTYIDLIFPDCLAPRVMLEPAAETIPQTQEIISVTLQVLSLLPPYRQSISVLAGSTVEDVLKKAHELGGFTYETQASLSGPYLTSVMGKAAGEREFWQLLRDPNTPLLQGIADYRPKDGETIELRLVSW
notes: also called TC-Cbl; holo TC

Assay [1] has as its target T1, transcobalamin receptor (TCblR) purified from human placenta (human, UniProt Q9NPF0 32-282).
T1 construct: also called TCR; purified TCblR
T1 sequence: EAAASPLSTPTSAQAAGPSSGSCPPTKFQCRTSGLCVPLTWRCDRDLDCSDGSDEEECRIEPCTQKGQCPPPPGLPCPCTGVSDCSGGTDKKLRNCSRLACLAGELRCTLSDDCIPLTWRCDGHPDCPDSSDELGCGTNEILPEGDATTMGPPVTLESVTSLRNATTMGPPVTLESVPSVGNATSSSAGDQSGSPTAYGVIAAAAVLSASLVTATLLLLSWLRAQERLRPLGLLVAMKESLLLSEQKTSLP
Nature of the assay: radiolabeled Cbl-TC binding to purified TCblR competed by unlabeled holo-TC or apo-TC (FIG. 12).

The target in assay [2] is T2, recombinant extracellular fragment of TCblR produced in HEK 293 cells (human, UniProt Q9NPF0 32-247).
T2 construct: Highly glycosylated; also called EXC fragment of TCblR; recombinant TCblR extracellular domain
T2 sequence: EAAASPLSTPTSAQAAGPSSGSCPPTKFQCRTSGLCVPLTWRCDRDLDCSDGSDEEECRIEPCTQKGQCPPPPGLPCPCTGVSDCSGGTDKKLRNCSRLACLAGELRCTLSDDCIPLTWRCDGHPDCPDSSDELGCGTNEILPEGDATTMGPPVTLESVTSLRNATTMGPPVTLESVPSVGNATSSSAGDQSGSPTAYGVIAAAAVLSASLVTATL
Nature of the assay: not described; extracellular fragment expressed in HEK 293 cells.

Assay [3] has as its target B1. Nature of the assay: binding studies with the recombinant extracellular domain.

Turning to B1, the “fold difference in affinity (holo TC against apo TC)” value in assay [1] came out at 28 fold. Moreover, in assay [2], the “fold higher affinity (holo-TC against the apo protein)” value turned out to be 28 fold.

B2: recombinant extracellular (EXC) domain of TCblR produced in NSO myeloma cells, cleaved from the Fc fusion protein (receptor)
chain: SPLSTPTSAQAAGPSSGSCPPTKFQCRTSGLCVPLTWRCDRDLDCSDGSDEEECRIEPCTQKGQCPPPPGLPCPCTGVSDCSGGTDKKLRNCSRLACLAGELRCTLSDDCIPLTWRCDGHPDCPDSSDELGCGTNEILPEGDATTMGPPVTLESVTSLRNATTMGPPVTLESVPSVGNATSSSAGDQSGSPTAY
notes: Fully glycosylated; also called EXC fragment; EXC-TCblR; not shown: some amino acids of the original Fc fusion protein remained in the cleaved fragment; they are not specified
Turning to B2, the binding result in assay [3] is “binds”.

Values taken from patent US8524454 (RESEARCH FOUNDATION OF STATE UNIVERSITY OF NEW YORK, dated 2013).
